This data set can be described thus: yeast display, Sf9 membrane polyspecificity reagent, FACS + sequencing; frameworks hold sequencing errors. Summed up:
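Galactose induction of a Saccharomyces cerevisiae BJ5465 synthetic nanobody display library ran 36–48 hours. The cells were then stained for 1 hour at 4 °C with 10% biotinylated, detergent-solubilized Sf9 membrane reagent, pulled down on streptavidin microbeads and FACS-sorted into low and high (top ~1%) gates on expression and reagent-binding fluorescence. Labels for polyreactivity follow the gate of origin.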
Turning to “QVQLVESGGGLVQAGGSLRLSCAASGIPRNTMGWYRQAPGKETELVASISTSGGSTYYADSVKGRFTISRDNAKNTVYLQMNSLKPEDTAVYYCAKKGYASRYFIYDYWGQGTQVTVSS”, the “polyreactivity (PSR sort gate)” value is on record as “low polyreactivity”.

As to “QVQLVESGGGLVQAGGSLRLSCAASGISFGNYAMGWYRQAPGKERELVATISRSGGSTYYADSVKGRFTISRDNAKNTVYLQMNSLKPEDTAVYYCAAQDARRIVYYRYYYWGQGTQVTVSS”, the “polyreactivity (PSR sort gate)” value is “high polyreactivity”. Turning to “QVQLVESGGGLVQAGGSLRLSCAASGISFYVNAMGSYRQAPGKERELVVAITQSVDITSYADSVKGRFTISRDNEKNTVYLQMNSLKPEVTAVYYCATRVIQDDNARDYWGQGTQVTVSS”, the “polyreactivity (PSR sort gate)” value is “low polyreactivity”. With “QVQLVESGGGLVQAGGSLRLSCAASGISYRWYAMGWYRQAPGKERELVAAISSGGSTTYADSVKGRFTISRDNAKNTVYLQMNSLKPEDTAVYYCAARYQWYSADYDYWGQGTQVTVSS”, the “polyreactivity (PSR sort gate)” value was “high polyreactivity”.

For the sequence “QVQLVESGGGLVQAGGSLRLSCAASGITFADNARGWYRQAPGKERELVASISNSSGSTYYADSVKGRFTISRDNAKNTVYLQMNSLKPEDTAVYYCATDPYVRRSPSWYDYWGQGTQVTVSS”, the “polyreactivity (PSR sort gate)” value was “low polyreactivity”. Take “QVQLVESGGGLVQAGGSLRLSCAASGITFAKYAMGWYRQAPGKERELVAAISTSGGSTYYADSVKGRFTISRDNAKNTVYLQMNSLKPEDTAVYYCNVDTYIWYYLRYYNYWGQGTQVTVSS”: the “polyreactivity (PSR sort gate)” value is given as “high polyreactivity”. On to “QVQLVESGGGLVQAGGSLRLSCAASGITFAQYAMGWYRQAPGTERELVAGITRSGGSTHYADSVKGRFTISRDNAKNTVYLQMNSLKPEDTAVYYCNARYPYRGKRKPSDYWGQGTQVTVSS”, for which the “polyreactivity (PSR sort gate)” value is recorded as “high polyreactivity”. In the case of “QVQLVESGGGLVQAGGSLRLSCAASGITFASYAMGWYRQAPGKERELVAGISGSGGRTYYADSVKGRFTISRDNAKNTVYLQMNSLKPEDTAVYYCAARQWDIRASPPRYYRYDYWGQGTQVTVSS”, the “polyreactivity (PSR sort gate)” value is “high polyreactivity”.

On to “QVQLVESGGGLVQAGGSLRLSCAASGITFAWNAMGWYRPAPGKEREFVAAINWSGGSTYYADSVKGRFTISRDNAKNTVYLQMNSLKPEDTAVYYCAAYKRSYYPRTLYDYWGQGTQVTVSS”, for which the “polyreactivity (PSR sort gate)” value was “high polyreactivity”. Consider “QVQLVESGGGLVQAGGSLRLSCAASGITFAYYAKGWYRQAPGKEREFVAAINGGGSTNYADSVKGRFSISRDNAKNTVYLQMNSLKAEDTAVYFCNARRAYRAWYYPYDYWGQGTQVTVSS”, for which the “polyreactivity (PSR sort gate)” value was “high polyreactivity”. As to “QVQLVESGGGLVQAGGSLRLSCAASGITFAYYAMGWYRQAPGKERELVAAITGDGGSTYYADSVKGRFTISRDNAKNTVYLQMNSLKPEDTAVYYCNAELSDYRYDWWDYDYWGQGTQVTVSS”, the “polyreactivity (PSR sort gate)” value is “high polyreactivity”. Consider “QVQLVESGGGLVQAGGSLRLSCAASGITFAYYVMGWYRQAPGKERELVAAINWSGGSTYYADSVKGRFTISRDNAKNTVYLQMNSLKPEDTAVYYCAADWSTWYGEKFYWGQGTQVTVSS”, for which the “polyreactivity (PSR sort gate)” value is reported as “high polyreactivity”. On to “QVQLVESGGGLVQAGGSLRLSCAASGITFAYYVMGWYRQAPGKERELVAAISRSGSTYYADSVKGRFTISRDNAKNTVYLQMNSLKPEDTAVYYCAVLYIRWYTYEYWGQGTQVTVSS”, for which the “polyreactivity (PSR sort gate)” value was “high polyreactivity”. “QVQLVESGGGLVQAGGSLRLSCAASGITFDANAMGWYRQAPGKERELVARISSGGSTNYADSVKGRFTISRDNAKNTVYLQMNSLKPEDTAVYYCNTDLTGLDAEYDYWGQGTQVTVSS”: the “polyreactivity (PSR sort gate)” value is “low polyreactivity”.

Consider “QVQLVESGGGLVQAGGSLRLSCAASGITFDGYAMGWYRQAPGKERELVAAITYSGGRTYYADSVKGRFTISRDNAKNTVYLQMNSLKPEDTAVYYCAVVSRRLYDYDYWGQGTQVTVSS”, for which the “polyreactivity (PSR sort gate)” value is reported as “high polyreactivity”. Turning to “QVQLVESGGGLVQAGGSLRLSCAASGITFDLYDMGWYRQAPGKERDFVAAITDADSTYYADSVKGRFTISRDNAKNTVYLQMNSLKPEDTAVYYCAADFFYSVYSGHYDYWGQGTQVTVSS”, the “polyreactivity (PSR sort gate)” value is reported as “low polyreactivity”. For “QVQLVESGGGLVQAGGSLRLSCAASGITFDNYAMGWYIQAPGKERELVAAITSGDGTYYADSVKWRFTISRDNAKITVYLQMNSLKPEDTAVYACAVQGSRTENYDWYYYGGQGTQVTVSS” the value was “low polyreactivity”; for “QVQLVESGGGLVQAGGSLRLSCAASGITFDRYAMGWYRQAPGKERELVAAITTRGTRTYADSVKGRFTISRDNAKNTVYLQMNSLKPEDTAVYYCAATSYRLTYAWPYYYWGQGTQVTVSS”, “high polyreactivity”. “QVQLVESGGGLVQAGGSLRLSCAASGITFDTYAMGWYRQAPGKERELVAAISKSGGSTYYADSVKGRFTISRDNAKNTVYLQMNSLKPEDTAVYYCAKDAGSRTVREFGYWGQGTQVTVSS”: the “polyreactivity (PSR sort gate)” value is “high polyreactivity”.

With “QVQLVESGGGLVQAGGSLRLSCAASGITFDVYAMGWYRQAPGKERELVAAISSVGGTYYADSVKGRFTISRDNAKNTVYFQMNSLKPEDTAVYYCNTDGYVGSIRSGLYIYEYWGQGTQVTVSS”, the “polyreactivity (PSR sort gate)” value is “low polyreactivity”. For “QVQLVESGGGLVQAGGSLRLSCAASGITFDVYAMGWYRQAPGKERELVAAISSVGGTYYADSVKGRFTISRDNAKNTVYLQMNSLKPEDTAVYYCNTDGYVGSIRSGLYIYDYWGQGTQVTVSS”, the “polyreactivity (PSR sort gate)” value is recorded as “low polyreactivity”. Regarding “QVQLVESGGGLVQAGGSLRLSCAASGITFDWNAMGWYRQAPGKERELVAAISSGASTYYADSVKGRFTISRDNAKNTVYLQMNSLKPEDTAVYYCAKRHAINIHAVGPYYTSMDYWGQGTQVTVSS”, the “polyreactivity (PSR sort gate)” value is listed as “low polyreactivity”. As for “QVQLVESGGGLVQAGGSLRLSCAASGITFDYYGMGWYRQAPGKERALCASITSGGSTNYADSVKGRFTISRDNAKNSVYLQMNSLKPEDTAVYYCAADGYGGYYRGTYYTVYFWGQGTQVTVSS”, the entry is “low polyreactivity”; as for “QVQLVESGGGLVQAGGSLRLSCAASGITFDYYPMGWYRQEPGKERELVAVITWSVGSTKYADSVKGRFTISRDNAKNTVYLLMNRLKPEETAVYNCNPRPPRWVRSMDYWGHGTQVTVSS”, “high polyreactivity”; as for “QVQLVESGGGLVQAGGSLRLSCAASGITFEGYAMGWYRQAPRKERELVAAITGSGSTTYYADSVKGRFTISRDNAKNTVYLQMNSLKPEDTAVYYCAADVSYKLYWGQVTQVTVSS”, “low polyreactivity”. Consider “QVQLVESGGGLVQAGGSLRLSCAASGITFELYAMGLYIQAPGKERELVAAISSNGGITFYADSVKGRFTISRDNAKNTVYLQMNSLKTEDTAVYYCAARGYIRGPSKLDYWGQGTQVTVSS”, for which the “polyreactivity (PSR sort gate)” value is reported as “high polyreactivity”. As for “QVQLVESGGGLVQAGGSLRLSCAASGITFEVYAKGWYRQAPGKERELVAVITSVGSTNYADSVKGRFTISRDNAKNTVYLQMNSLKPEDTAVYYCAAEKWTVRRFNPYTYYRYDYWGQGTQVTVSS”, the entry is “low polyreactivity”; as for “QVQLVESGGGLVQAGGSLRLSCAASGITFEYYDMGWYRQAPGKERELVAAISWSTDITYADSVKGRFTISRDNAKNTVYLQMNSLKPEDTAVYYCAASTYEYTSYDYWGHGTQVTVSS”, “low polyreactivity”. Regarding “QVQLVESGGGLVQAGGSLRLSCAASGITFFGYAMGWYRQAPGKERELVAAISTRGGSTYYADSVKGRFTISRDNAKNTVYLQMNSLKPEDTAFYYCNKEYYHKWAPTYDYWGQGTQVTVSS”, the “polyreactivity (PSR sort gate)” value is given as “low polyreactivity”. In the case of “QVQLVESGGGLVQAGGSLRLSCAASGITFGANAMGWYRQAPGKERELVADITWSGGDTYYADSVKGRFTISRDTAKNTVYLQLHSLKPEDTAVYYCAVDTYIYTNRRYTKFDYWGQGTQVTVSS”, the “polyreactivity (PSR sort gate)” value is “low polyreactivity”.

The values are drawn from the nanobody polyreactivity screen of Harvey et al. (2022).
